Laboratory results taken from patent publication US20070231333A1, “ANTI-5T4 ANTIBODIES AND USES THEREOF” (Wyeth, priority 2006, published 2007).

Legend:
MDAMB435/5T4 cells = assay: Modulation/internalization of antibodies by MDAMB435/5T4 cells (FACS); format: cell-based, human; details: 37° C., 4 or 24 hours, 4C
Protocol: FIGS. 4A-4C are line graphs that show modulation of H8, A1, A2, and A3 antibodies by MDAMB435/5T4 cells. […] MCF, mean cellular fluorescence; supt, supernatant.
To assess internalization of antibodies upon binding to 5T4 antigen, the amount of H8 and A1 antibodies detected at the cell surface versus in the supernatant was determined as a function of time. Non-enzymatically dissociated MDAMB435/5T4 cells (human breast cancer cells) were exposed to anti-5T4 antibodies for 1 hour at 4° C. Cells were washed and incubated in media at 37° C. for 4 hours or 24 hours. The amount of antibody bound to cellular membranes versus unbound antibody (i.e., presence in the supernatant) was determined using FACS.

[1] = test system: chimpanzee 5T4 ectodomain Fc; assay: Epitope mapping ELISA, 5T4 ectodomain Fc fusions; format: binding; set-up: key: +: binding; −: no binding; +/−: partial binding
Protocol: (§1) To identify the epitopes to which each of the A1, A2, A3, and H8 antibodies bind, ELISA assays were performed using (1) 5T4 ectodomain Fc constructs with deleted or mutated sequences, and (2) 5T4 chimera constructs transiently expressed in COS-1 cells. The ectodomain includes the amino-terminal region, two leucine-rich repeats, and the intervening hydrophilic region. Fusion proteins containing a 5T4 ectodomain and a Fc constant regions from human IgG1 were prepared using mouse 5T4 (amino acids 1-361), rat 5T4 (amino acids 1-361), cynomologous monkey 5T4 (amino acids 1-355), chimpanzee 5T4 (amino acids 1-355), and black-tailed marmoset (amino acids 1-355). The 5T4 chimera constructs are depicted in FIG. 5. The binding results are summarized in Table 5, which indicates specific binding, partial binding, or lack of binding, by each of the H8, A1, A2, and A3 antibodies.

[2] = biological target: T1, cynomologous monkey 5T4 ectodomain Fc (Macaca fascicularis, UniProt Q4R8Y9, G135A/G313E/S41F); assay: Epitope mapping ELISA, 5T4 ectodomain Fc fusions; format: binding; set-up: key: +: binding; −: no binding; +/−: partial binding
T1 construct: cynomologous monkey 5T4 (amino acids 1-355); made in house; host or cells: COS-1 cells (transient)
T1 sequence (Q4R8Y9 35-355 S41F/G135A/G313E): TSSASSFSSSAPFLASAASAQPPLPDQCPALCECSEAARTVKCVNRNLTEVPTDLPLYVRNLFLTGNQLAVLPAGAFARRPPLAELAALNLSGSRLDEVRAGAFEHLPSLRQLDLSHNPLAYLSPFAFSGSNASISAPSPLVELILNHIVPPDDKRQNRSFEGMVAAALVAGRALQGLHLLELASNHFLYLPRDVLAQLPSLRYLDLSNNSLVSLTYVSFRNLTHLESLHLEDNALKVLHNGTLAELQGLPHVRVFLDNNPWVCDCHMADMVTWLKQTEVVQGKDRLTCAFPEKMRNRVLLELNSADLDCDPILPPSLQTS
Protocol: as §1

mouse 5T4 ectodomain Fc = biological target: T2, mouse 5T4 ectodomain Fc (Mus musculus, UniProt Q9Z0L0); assay: Epitope mapping ELISA, 5T4 ectodomain Fc fusions; format: binding; set-up: key: +: binding; −: no binding; +/−: partial binding
T2 construct: mouse 5T4 (amino acids 1-361); made in house; host or cells: COS-1 cells (transient)
T2 sequence (Q9Z0L0 32-361): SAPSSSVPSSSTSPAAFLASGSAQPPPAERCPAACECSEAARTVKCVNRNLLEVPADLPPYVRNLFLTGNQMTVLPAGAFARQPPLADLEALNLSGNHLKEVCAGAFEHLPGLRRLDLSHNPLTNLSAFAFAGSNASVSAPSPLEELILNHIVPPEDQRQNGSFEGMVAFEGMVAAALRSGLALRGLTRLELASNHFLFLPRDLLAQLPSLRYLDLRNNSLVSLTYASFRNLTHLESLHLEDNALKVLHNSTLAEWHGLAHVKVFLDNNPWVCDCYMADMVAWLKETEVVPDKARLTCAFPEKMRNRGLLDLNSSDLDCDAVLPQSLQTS
Protocol: as §1

human 5T4 ectodomain Fc = biological target: T3, human 5T4 ectodomain Fc (Homo sapiens, UniProt Q13641); assay: Epitope mapping ELISA, 5T4 ectodomain Fc fusions; format: binding; set-up: key: +: binding; −: no binding; +/−: partial binding
T3 construct: Human; 100; 1-355; made in house; host or cells: COS-1 cells (transient)
T3 sequence (Q13641 32-355): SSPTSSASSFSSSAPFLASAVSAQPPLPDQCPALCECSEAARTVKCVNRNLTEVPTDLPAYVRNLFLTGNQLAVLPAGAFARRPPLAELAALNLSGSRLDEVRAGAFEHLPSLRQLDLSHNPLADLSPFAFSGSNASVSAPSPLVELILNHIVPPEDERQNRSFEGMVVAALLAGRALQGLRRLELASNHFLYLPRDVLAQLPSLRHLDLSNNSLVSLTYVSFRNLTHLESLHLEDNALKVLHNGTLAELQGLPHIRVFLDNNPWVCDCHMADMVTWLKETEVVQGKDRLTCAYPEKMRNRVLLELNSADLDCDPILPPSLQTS
Protocol: as §1

[3] = biological target: T4, human/mouse 173-361 5T4 chimera (Homo sapiens, UniProt Q13641, A205S/A340S/D319A/E189Q/E336D/G276S/G317D/H238Y/H301Y/I287V/I347V/INS199AFEGMV/L204R/L281W/P285A/P346A/P350Q/Q210R/Q282H/Q316P/R193G/R207L/R213T/R288K/S242R/T307A/V176E/V200A/V229L/V252A/V333G/Y224F/Y325F); assay: Epitope mapping ELISA, human/mouse 5T4 chimeras; format: binding; set-up: key: +: binding; −: no binding; +/−: partial binding
T4 construct: made in house; host or cells: COS-1 cells (transient)
T4 sequence (Q13641 with tags, fused parts or gaps V176E/E189Q/R193G/INS199AFEGMV/V200A/L204R/A205S/R207L/Q210R/R213T/Y224F/V229L/H238Y/S242R/V252A/G276S/L281W/Q282H/P285A/I287V/R288K/H301Y/T307A/Q316P/G317D/D319A/Y325F/V333G/E336D/A340S/P346A/I347V/P350Q limits assumed): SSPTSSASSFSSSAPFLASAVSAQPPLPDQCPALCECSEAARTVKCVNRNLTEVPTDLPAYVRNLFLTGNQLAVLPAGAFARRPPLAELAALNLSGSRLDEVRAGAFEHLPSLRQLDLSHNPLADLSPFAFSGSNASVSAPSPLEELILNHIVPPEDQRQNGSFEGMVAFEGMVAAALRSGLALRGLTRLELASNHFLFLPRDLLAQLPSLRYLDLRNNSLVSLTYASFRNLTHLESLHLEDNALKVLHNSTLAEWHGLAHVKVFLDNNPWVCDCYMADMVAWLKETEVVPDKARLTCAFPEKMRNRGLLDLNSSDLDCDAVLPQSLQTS
Protocol: as §1

B1: A2: murine anti-5T4 monoclonal antibody (IgG2b heavy chain); VH residues 19-135 of SEQ ID NO:6, VL residues 23-130 of SEQ ID NO:8 (antibody, listed as Mus musculus, V domains shown)
VH: MEWRIFLFILSGTAGVHSQVQLQQSRPELVKPGASVKMSCKASGYTFTDYVISWVKQRTGQGLEWIGEIYPGSNSIYYNEKFKGRATLTADKSSSTAYMQLSSLTSEDSAVYFCAMGGNYGFDYWGQGTTLTVSS
VL: MDFQVQIFSFLLISASVIMSRGQIVLTQSPAIMSASLGERVTLTCTASSSVNSNYLHWYQQKPGSSPKLWIYSTSNLASGVPARFSGSGSGTSYSLTISSMEAEDAATYYCHQYHRSPLTFGAGTKLELK
modifications: (1)..(18) leader sequence; (19)..(135) heavy chain variable region; (44)..(53) CDR1; (68)..(84) CDR2; (117)..(124) CDR3; (1)..(22) leader sequence; (23)..(130) light chain variable region; (46)..(56) CDR1; (73)..(79) CDR2; (112)..(120) CDR3
For B1, the “levels of antibody at the cell surface” value (MDAMB435/5T4 cells; FIGS. 4A) was “decline over time”, the “levels of antibody in the supernatant” value (MDAMB435/5T4 cells; FIGS. 4B) was “remain constant” and the “binding to 5T4 antigen construct” value [1] was “+”. For the same molecule, the “binding to 5T4 antigen construct” value [2] was “+”, the “binding to 5T4 antigen construct” value (mouse 5T4 ectodomain Fc) was “−” and the “binding to 5T4 antigen construct” value (human 5T4 ectodomain Fc) was “+”. For the same molecule, the “binding to 5T4 antigen construct” value [3] was “−”.
